What was measured:
[1] = system: DLD1 tumor; assay: In vivo imaging, DLD1 heterotransplantation model; design: species or system nude mice; details: 25, 50, 100 μg intravenously, pre-labeled with Psyche F-IRDye 800; imaging 2, 24, 48 hours
Protocol: The thus purified anti-epiregulin scFv-V2122 was mixed with Psyche F-IRDye 800 (Compound 44 in Example) dissolved in DMSO (final concentration was ten-fold molar concentration), and the mixture was incubated on ice for 10 minutes. The buffer was then replaced with Japanese Pharmacopoeia physiological saline (Otsuka Pharmaceutical Co., Ltd.) using Zeba Spin Desalting Column (Thermo Fisher Scientific Inc.) and was stored under cooling. Epiregulin IgG was labeled using ICG Labeling Kit-NH2 (Dojindo Laboratories).
Suspension liquid of human colorectal cancer-derived DLD1 cell and Matrigel Matrix (Corning) were mixed in a ratio of 1:1 (5×10^6 cells/0.1 mL), and 0.1 mL of the mixed liquid was administered subcutaneously in the left side of 5 to 6-week-old female nude mice (Sankyo Labo Service Corporation, Inc.). The mice were bred for several weeks to produce tumor. One week before imaging, the feed was switched to a low fluorescence feed (iVid #1, Oriental Yeast Co., Ltd.) and the breeding was continued. […]
Anti-epiregulin scFv-V2122 antibody (25 μg, 50 μg, 100 μg) preliminarily labeled with fluorescence by allowing it to react with Psyche F-IRDye 800 (Compound 44 in Example), or fluorescent-labeled epiregulin IgG (50 μg) was intravenously administered to nude mice having established DLD1 tumor. […]

[2] = Immunogenicity testing, antibody in serum analyzed by SPR; format: in vivo, crab-eating monkey (Macaca fascicularis); details: 1 mg purified protein administered three times (Day 0, 21, 42); four monkeys
Protocol: Immunogenicity testing was conducted using four crab-eating monkeys. One milligram of the purified protein was administered three times. Before administration, blood was collected for preparing a negative control serum, followed by three times of administration of 1 mg each of purified protein. More specifically, letting the first day of administration of Day 0, the second administration fell on Day 21, and the third administration fell on Day 42. For V2122, blood was collected on Days 7, 14, 28 and 35 to prepare serum samples, and for the other, blood was collected on Days 7, 14, 28, 35, 49 and 56 to prepare serum samples.
Antibody against V2122 in the serum samples was analyzed by surface plasmon resonance (SPR). More specifically, Biacore T200 (GE Healthcare BioScience Corp.) was used as a measuring instrument, which was operated in the mode using immunogenicity package. The sensor chip was CM5. As instructed by the manual, V2122 protein (10 μg/mL) was immobilized on the CM5 sensor chip using an amine coupling kit. Serum was diluted ten-fold with a running buffer (HBS-EP, GE Healthcare BioScience Corp.) for the interaction analysis. More specifically, the serum diluted ten-fold was loaded into the running buffer at a flow rate of 10 μL/min for 5 minutes. The obtained sensorgram was analyzed using an analytical software named Biacore T200 Evaluation Software.

[3] = SPR interaction of streptavidin mutants with biotin (Comparative Example 1); format: binding; details: biotin 1.8-1800 nM; protein immobilized via His-Tag
Protocol: (§1) More specifically, using Biacore T200 (GE Healthcare BioScience Corp.) as a measuring instrument, and Sensor Chip NTA (GE Healthcare BioScience Corp.) as a sensor chip, the protein was immobilized on the sensor chip by way of His-Tag having been fused to the core protein. The running buffer was prepared using HBS-P(+), as described in the manual. A dilution series of Compound was prepared by using the running buffer in seven steps of 1.8 nM, 9 nM, 18 nM, 90 nM, 180 nM, 900 nM and 1800 nM, to obtain data.

[4] = SPR interaction of streptavidin mutants with Compound C (Comparative Example 2); format: binding; details: Compound C 1.8-1800 nM; protein immobilized via His-Tag
Excerpt: as §1, with “Using the purified two […] core streptavidin mutants (cSA-Y43A, cSA-S45A) described above, and purified V2122 protein, interaction with Compound C was investigated by surface plasmon resonance (SPR). More” for “More”

[5] = target: T1, Pro-EPR-mFc (extracellular domain of epiregulin fused with murine Fc region) (Homo sapiens, UniProt O14944); assay: SPR antigen binding potential (Biacore T200); details: for Kd: SPR kinetics assay, Pro-EPR-mFc captured on CM5, read-out: affinity to the antigen after FITC labeling
T1 construct: made in house; host or cells: Expi293F cells, pcDNA3.4 vector
Excerpt: Next, in order to confirm whether the labeling reduced the binding potential or not, the antigen binding potential of anti-epiregulin scFv-V2122-FITC was confirmed by SPR (Biacore T200). More specifically, protein (Pro-EPR-mFc) obtained by fusing the extracellular domain of epiregulin which functions as a ligand with murine Fe region is captured on the sensor chip CM5 having anti-Murine IgG antibody immobilized thereon, and then eluted for kinetics assay with an analyte composed of a two-fold dilution series prepared by diluting a 20 nM anti-epiregulin scFv-V2122-FITC solution into nine steps (FIG. 14). […] Also epiregulin IgG and anti-epiregulin scFv protein were investigated in the binding test in the same way as described above, using a two-fold dilution series prepared by diluting a 300 nM solution into nine steps (FIG. 14). Data was analyzed using Biacore evaluation software.

[6] = system: DLD1 cells; assay: Cell staining and analysis of internalization; format: cell-based, human; details: for staining of the surface of the cell membrane: DLD1, 25 nM, 50 nM and 100 nM
Protocol: Human colorectal cancer-derived DLD1 cells, used for cell staining, were cultured in a complete medium RPNI1640 (containing 10% FBS), and seeded in uClear 96-well plate (Greiner) in a density of 1×10^4 cells/well, two days before the assay. In the cell staining, first the medium was replaced with a complete medium added with Hoechst 33342 so as to adjust the concentration to 1 μM, and 15 minutes after, each of anti-epiregulin scFv-V2122-FITC, epiregulin IgG-FITC and anti-epiregulin scFv-FITC was added to the individual wells so as to adjust the concentration to 25 nM, 50 nM and 100 nM.
Binding of antibody to the cell surface, and internalization were analyzed using IN Cell Analyzer 6000 (GE Healthcare BioScience Corp.), and recorded by time lapse imaging at 5 minute intervals.

[7] = system: DLD1 cells having epiregulin expressed; assay: FACS analysis of cell surface binding potential; format: cell-based, human; details: 0, 0.5, 5, 50 nM, on ice 30 minutes
Protocol: Cell surface binding potential was determined by FACS, using labeled antibodies that are anti-epiregulin scFv-V2122-FITC, epiregulin IgG-FITC and anti-epiregulin scFv-FITC. More specifically, dilute solutions of the labeled antibodies having concentrations of 0 nM, 0.5 nM, 5 nM and 50 nM were allowed to react on ice for 30 minutes with DLD1 cells (1×10^6 cells/mL, […]) having epiregulin expressed therein, and then fluorescence was measured using flow cytometer guava easyCyte 5. The measurement followed the usage and dosage instructions given in the manual of the instrument.

T1 sequence (O14944 with tags, fused parts or gaps): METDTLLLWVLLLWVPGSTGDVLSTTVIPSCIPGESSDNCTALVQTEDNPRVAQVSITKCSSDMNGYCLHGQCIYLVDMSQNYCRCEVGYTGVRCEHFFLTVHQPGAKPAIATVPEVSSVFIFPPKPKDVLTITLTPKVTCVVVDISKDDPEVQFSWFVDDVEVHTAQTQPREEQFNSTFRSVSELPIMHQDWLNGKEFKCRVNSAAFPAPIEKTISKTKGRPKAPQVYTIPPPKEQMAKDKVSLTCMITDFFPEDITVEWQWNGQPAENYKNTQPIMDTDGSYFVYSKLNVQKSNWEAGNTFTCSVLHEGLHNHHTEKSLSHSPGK

B1: anti-epiregulin scFv-V2122: fusion protein formed by anti-epiregulin scFv and V2122; SEQ ID NO: 30 (protein)
chain: MKYLLPTAAAGLLLLAAQPAMAQVQLQQSGAEVKKPGASVKVSCKASGFNIKDTYMHWVRQAPEQGLEWMGRIDPLNDKTKYDPKFQGRVTITADTSTNTAYLELSSLTSEDTAVYYCARGGGDPVFVYWGQGTLVTVSASSGGGGSGGGGSGGGGSGGGGSGGDIQMTQSPSSLSASVGDRVTITCKASQDINKYLAWYQHKPGQAPRLLIHYTSTLHPGIPSRFSGSGSGTDFTFSISSLQPEDIATYYCLQYDNLRTFGGGTKVEIKRTSGGGGSGGGGAEAGITGTWSDQLGDTFIVTAGADGALTGTYENAVGGAESRYVLTGRYDSAPATDGSGTALGWTVAWKNNSKNAHSATTWSGQYVGGADAKINTQWLLTSGTTNANAWKSTLVGHDTFTKVKPSAASHHHHHH
- accumulation in tumor [1]: accumulate in the tumor of the model mice earlier (2 hours after administration) than the labeled IgG

B2: V2122: glycine mutant (N49G) of V212 streptavidin mutant; amino acid sequence SEQ ID NO: 4 (protein)
chain: AEAGITGTWSDQLGDTFIVTAGADGALTGTYENAVGGAESRYVLTGRYDSAPATDGSGTALGWTVAWKNNSKNAHSATTWSGQYVGGADAKINTQWLLTSGTTNANAWKSTLVGHDTFTKVKPSAAS
- immunogenicity [2]: low as compared with the immunogenicity of the wild-type streptavidin and LISA314
- interaction with biotin (sensorgram) [3]: absence of specific binding
- interaction with Compound C (sensorgram) [4]: specific binding showing only an extremely slow dissociation

B3: anti-epiregulin scFv-FITC: FITC-labeled anti-epiregulin scFv protein (SEQ ID NO: 22) (protein)
scFv: MKYLLPTAAAGLLLLAAQPAMAQVQLQQSGAEVKKPGASVKVSCKASGFNIKDTYMHWVRQAPEQGLEWMGRIDPLNDKTKYDPKFQGRVTITADTSTNTAYLELSSLTSEDTAVYYCARGGGDPVFVYWGQGTLVTVSASSGGGGSGGGGSGGGGSGGGGSGGDIQMTQSPSSLSASVGDRVTITCKASQDINKYLAWYQHKPGQAPRLLIHYTSTLHPGIPSRFSGSGSGTDFTFSISSLQPEDIATYYCLQYDNLRTFGGGTKVEIKRTSHHHHHH
modifications: FITC label
- Kd [5]: 120 nM
- staining of the surface of the cell membrane [6]: staining of the surface of the cell membrane was observed
- cell surface binding potential by FACS [7]: level of binding potential lower than those shown by the former two

B4: anti-epiregulin scFv-V2122-FITC: FITC-labeled product of purified anti-epiregulin scFv-V2122 (protein)
scFv: QVQLQQSGAEVKKPGASVKVSCKASGFNIKDTYMHWVRQAPEQGLEWMGRIDPLNDKTKYDPKFQGRVTITADTSTNTAYLELSSLTSEDTAVYYCARGGGDPVFVYWGQGTLVTVSASSGGGGSGGGGSGGGGSGGGGSGGDIQMTQSPSSLSASVGDRVTITCKASQDINKYLAWYQHKPGQAPRLLIHYTSTLHPGIPSRFSGSGSGTDFTFSISSLQPEDIATYYCLQYDNLRTFGGGTKVEIKRTSGGGGSGGGGAEAGITGTWSDQLGDTFIVTAGADGALTGTYENAVGGAESRYVLTGRYDSAPATDGSGTALGWTVAWKNNSKNAHSATTWSGQYVGGADAKINTQWLLTSGTTNANAWKSTLVGHDTFTKVKPSAASHHHHHH
- affinity relative to epiregulin IgG-FITC and anti-epiregulin scFv-FITC [5]: 100 to 1000 times
- Kd [5]: 0.23 nM
- time at which internalization began to be observed after addition of antibody ([6]; DLD1): approximately 10 minutes
- staining of the surface of the cell membrane [6]: staining of the surface of the cell membrane was observed
- migration of fluorescence into the cytoplasm ([6]; DLD1, sixty-five minutes after addition): almost entire part of fluorescence was found to migrate into the cytoplasm
- internalization ([6]; DLD1, time lapse imaging at 5 minute intervals): distinct internalization was observed
- cell surface binding potential by FACS [7]: equivalent levels of binding potential

Source: patent US11161884B2 (SAVID THERAPEUTICS INC., priority 2014, dated 2021)
